Test results reported in article PMC3410656 (Nature structural & molecular biology, 2011).

Molecular target: blocked SNARE[change] (SNARE[change] with CPXcen residues 48-134 pre-bound) ( | rat | human, UniProt P63027;P32851;P60880-2;O14810)
Assay: ITC

B1: wild-type complexin fragment wtCPX (hCPX1 residues 26-83) (domain or fragment)
chain: KDPDAAKKEEERQEALRQAEEERKAKYAKMEAEREAVRQGIRDKYGIKKKEEREAEAQ
Kd: ~10 µM
